Measured values published in patent US20040171074A1, “Structures of substrate binding pockets of SCF complexes” (MOUNT SINAI HOSPITAL, priority 2002, published 2004).

What was measured:
phospho-Sic1 = assay: P-Sic1 pull down: in vitro capture of phospho-Sic1 on immobilized wild type or mutant Cdc4-GST-Skp1, anti-Sic1 immunoblot; type: binding, yeast; settings: Sic1 phosphorylated with Cln2-Cdc28, captured onto GST-Skp1/Cdc4 resin, anti-Sic1 detection
Procedure: (§1) Mutational analysis of the CPD binding surface. Mutants were tested in vitro by ability to bind phosphorylated Sic1 and then captured onto GST-Skp1/Cdc4 resin and detected with anti-sic1 antibody. Mutants were tested in vivo by ability to degrade GAL1-SIC1 or various phosphorylation mutants. Sites are as follows: 3=Thr 33, Thr 45, Ser 76; 4=Thr 5, Thr 33, Thr 45, Ser 76; 5=Thr 2, Thr 5, Thr 33, Thr 45, Ser 76; 6=Thr 2, Thr 5, Thr 33, Thr 45, Ser 69, Ser 76; 7=Thr 2, Thr 5, Thr 33, Thr 45, Ser 69, Ser 76, Ser 80. GAL1-SIC1 plasmids were transformed into a cdc4Δ strain containing a copy of CDC4 on a TRP1 ARS CEN plasmid. Strains were incubated for 2 days at 30° C.
Bacterially expressed His6-Sic1 was phosphorylated with Cln2-Cdc28 kinase purified from baculovirus infected Sf9 cells as described before (Nature paper). 1 ug of WT or mutant Cdc4-GST-Skp1, immoblized on GSH-Sepharose resin, was incubated with 0.5 ug phospho-Sic1 at 4 C for 1 h and washed 4 times. Captured complexes were resolved on SDS-PAGE and Sic1 visualized by anti-Sic1 Western blotting and ECL. For IEF-2D analysis, several Sic1 phosphorylation reactions were carried out for different time periods to obtain a spectrum of Sic1 that were phosphorylated at different numbers of its nine CDK sites. This pool of phospho-Sic1 (2.5 ug) was incubated with 5 μg of WT or mutant Cdc4-GST-Skp1 as described above. Different phosphorylation states of Sic1 were separated by denaturing isoelectric focusing (IEF)-2D gel electrophoresis and visualized by anti-Sic1 Western blotting and ECL. IEF was performed using pH 3-10NL Immobiline gel strips and IPGphore IEF system (Amersham pharmacia).
(§2) Cdc4 functional assays. CDC4 mutant alleles were assessed for complementation of a cdc4A strain in a plasmid shuffle assay (Nash et al., 2001). Sensitivity to SIC1 dosage was determined by transformation with pMT837 (GAL1-SIC1) or pMT767 (GAL1-SIC1^T33V) and plating on glucose medium or galactose medium. For in vitro capture of phospho-Sic1 by Cdc4, 0.5 μg of bacterially-expressed ^HIS6Sic1 was phosphorylated with immobilized Cln2-Cdc28 kinase from baculovirus-infected Sf9 cells and then incubated with 1 μg of immobilized wild type or mutant Cdc4^263-744-GST-Skp1, at 4° C. for 1 hr, washed 4 times and visualized by anti-Sic1 immunoblot. For isoelectric focusing (IEF)-2D gel analyses, an evenly distributed pool of phospho-Sic1 isoforms was generated by combining different time points in a Sic1 phosphorylation reaction. 2.5 μg of the phospho-Sic1 pool was bound to 5 μg of immobilized wild type or mutant Cdc4^1-744-GST-Skp1. Captured isoforms were separated by denaturing IEF-2D gel electrophoresis using pH3-10NL Immobiline gel strips (Amersham) and visualized by anti-Sic1 immunoblot. Alternatively, the pool of phospho-Sic1 isoforms was incubated in solution with a ubiquitination reaction mix containing ATP, ubiquitin, yeast E1, Cdc34 and either wild type or mutant SCF^Cdc4 complex, composed of a 1:1 ratio of bacterial Cdc4-GST-Skp1 and insect cell-produced Cdc53-Rbx1, at 30° C. for 1 h as previously described (Nash et al., 2001).

cdc4Δ strain = assay: plasmid shuffle assay: complementation of a cdc4Δ strain by CDC4 alleles; type: cell-based, yeast; settings: viability of cdc4Δ strain on 5-FOA, 2 days at 30° C.
Procedure: (§3) All mutants on a TRP1 ARS CEN plasmid were transformed into a cdc4Δ strain (MT 1259) containing a wildtype copy of CDC4 on a URA3 ARS CEN plasmid. Cells were plated on either Trp^−Ura^− or 5-FOA medium for 2 days at 30° C. Viable cells on 5-FOA were grown in Trp medium and transformed with either wild type GAL1-SIC1, GAL1-SIC T45A, or GAL1-SIC T33V on a LEU2 ARS CEN pasmid. Cells were then plated on Leu- Trp-plates containing either glucose or galactose and incubated for 2 days at 30° C.
as §2

Skp1 = biological target: T1, Skp1 (Saccharomyces cerevisiae, UniProt P52286); assay: Skp1 binding in vitro (pull down); parameters: species or system yeast
T1 construct: GST (N); made in house; host or cells: bacteria
From the text: In order to probe the functional importance of amino acid residues on the highly conserved peptide binding surface, a panel of Cdc4 mutants (both single and double mutant) were generated and tested each for its ability to bind phospho Sic1 and Skp1 in vitro using a pull down assay and for its ability to substitute for wt-cdc4 in vivo using a cell viability assay. Of 12 single site mutants tested, only Arg 467. Arg485Ala Arg534Ala, and Trp 426 abolished both cell viability in vivo and phosphoSic1 binding in vitro. Together, these residues compose most of the interaction surface with the pThr, Pro CPD core. […] Presumably in the context of the full SCF complex in vivo this mutant is sufficiently well behaved to bind phospho Sic1.

[1] = tested on: cdc4Δ strain overexpressing SIC1; assay: sensitivity to SIC1 dosage: GAL1-SIC1 overexpression in strains bearing CDC4 alleles; type: cell-based, yeast; settings: for gal Sic1T33V: GAL1-SIC1 T33V (partially stabilized Sic1); for gal Sic1T33V / gal Sic1T45A / gal Sic1 wt: galactose, 2 days at 30° C.; for gal Sic1T45A: GAL1-SIC1 T45A; for gal Sic1 wt: GAL1-SIC1 wild type; for viability / sensitivity to increased SIC1 dosage: Sic1 wt or stabilized Sic1(T33V) or Sic1(T45A) over-expressed under a galactose promoter
Procedure: as §1, §3
Since the cell viability assay nay be masking subtle functional roles for the conserved Cdc4 residues, function was assayed in vivo under more stringent conditions in which Sic1 wt or the stabilized mutants, Sic1 (T33V) or Sic1(T45A) are over-expressed under a galactose promoter. This should amplify defects in cdc4 function. Under these conditions, Trp 717, Tyr 548 and the double mutant K404D/R443D are lethal showing that these residues are in fact important for functions
as §2

T1 sequence (P52286 2-194 limits assumed): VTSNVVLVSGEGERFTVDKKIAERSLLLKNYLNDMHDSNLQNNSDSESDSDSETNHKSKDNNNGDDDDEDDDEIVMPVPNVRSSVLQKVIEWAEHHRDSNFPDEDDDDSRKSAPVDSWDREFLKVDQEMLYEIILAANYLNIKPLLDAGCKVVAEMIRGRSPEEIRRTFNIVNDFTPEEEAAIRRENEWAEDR

B1: R467A: mutant cdc4 polypeptide (protein)
chain: MGSFPLAEFPLRDIPVPYSYRVSGGIASSGSVTALVTAAGTHRNSSTAKTVETEDGEEDIDEYQRKRAAGSGESTPERSDFKRVKHDNHKTLHPVNLQNTGAASVDNDGLHNLTDISNDAEKLLMSVDDGSAAPSTLSVNMGVASHNVAAPTTVNAATITGSDVSNNVNSATINNPMEEGALPLSPTASSPGTTTPLAKTTKTINNNNNIADLIESKDSIISPEYLSDEIFSAINNNLPHAYFKNLLFRLVANMDRSELSDLGTLIKDNLKRDLITSLPFEISLKIFNYLQFEDIINSLGVSQNWNKIIRKSTSLWKKLLISENFVSPKGFNSLNLKLSQKYPKLSQQDRLRLSFLENIFILKNWYNPKFVPQRTTLRGHMTSVITCLQFEDNYVITGADDKMIRVYDSINKKFLLQLSGHDGGVWALKYAHGGILVSGSTDRTVRVWDIKKGCCTHVFKGHNSTVACLDIVEYKNIKYIVTGSRDNTLHVWKLPKESSVPDHGEEHDYPLVFHTPEENPYFVGVLRGHMASVRTVSGHGNIVVSGSYDNTLIVWDVAQMKCLYILSGHTDRIYSTIYDHERKRCISASMDTTIRIWDLENIWNNGECSYATNSASPCAKILGAMYTLQGHTALVGLLRLSDKFLVSAAADGSIRGWDANDYSRKFSYHHTNLSAITTFYVSDNILVSGSENQFNIYNLRSGKLVHANILKDADQIWSVNFKGKTLVAAVEKDGQSFLEILDFSKASKINYVSNPVNSSSSSLESISTSLGLTRTTIIP
For B1, the P-Sic1 pull down (phospho-Sic1) was “no bind”, the P-Sic1 pull down (phospho-Sic1; listed as Arg 467) was “abolished” and the P-Sic1 pull down (phospho-Sic1; listed as Arg467Ala) was “unable to bind”. The shuffle (cdc4Δ strain) was “dead”, the shuffle (cdc4Δ strain; listed as Arg 467) was “abolished” and the shuffle (cdc4Δ strain; listed as Arg467Ala) was “unable”. For the same molecule, the Skp1 binding (Skp1) was “fully competent”.

B2: V384N: mutant cdc4 polypeptide (protein)
chain: MGSFPLAEFPLRDIPVPYSYRVSGGIASSGSVTALVTAAGTHRNSSTAKTVETEDGEEDIDEYQRKRAAGSGESTPERSDFKRVKHDNHKTLHPVNLQNTGAASVDNDGLHNLTDISNDAEKLLMSVDDGSAAPSTLSVNMGVASHNVAAPTTVNAATITGSDVSNNVNSATINNPMEEGALPLSPTASSPGTTTPLAKTTKTINNNNNIADLIESKDSIISPEYLSDEIFSAINNNLPHAYFKNLLFRLVANMDRSELSDLGTLIKDNLKRDLITSLPFEISLKIFNYLQFEDIINSLGVSQNWNKIIRKSTSLWKKLLISENFVSPKGFNSLNLKLSQKYPKLSQQDRLRLSFLENIFILKNWYNPKFVPQRTTLRGHMTSNITCLQFEDNYVITGADDKMIRVYDSINKKFLLQLSGHDGGVWALKYAHGGILVSGSTDRTVRVWDIKKGCCTHVFKGHNSTVRCLDIVEYKNIKYIVTGSRDNTLHVWKLPKESSVPDHGEEHDYPLVFHTPEENPYFVGVLRGHMASVRTVSGHGNIVVSGSYDNTLIVWDVAQMKCLYILSGHTDRIYSTIYDHERKRCISASMDTTIRIWDLENIWNNGECSYATNSASPCAKILGAMYTLQGHTALVGLLRLSDKFLVSAAADGSIRGWDANDYSRKFSYHHTNLSAITTFYVSDNILVSGSENQFNIYNLRSGKLVHANILKDADQIWSVNFKGKTLVAAVEKDGQSFLEILDFSKASKINYVSNPVNSSSSSLESISTSLGLTRTTIIP
In the case of B2, the P-Sic1 pull down (phospho-Sic1) is reported as “bind”, the P-Sic1 pull down (phospho-Sic1; listed as Val384) is reported as “fully competent” and the P-Sic1 pull down (phospho-Sic1; listed as Val384Asn) is reported as “indistinguishable from wild type”. The shuffle (cdc4Δ strain) was “alive”, the shuffle (cdc4Δ strain; listed as Val384) was “viable” and the shuffle (cdc4Δ strain; listed as Val384Asn) was “indistinguishable from wild type”. For the same molecule, the “gal Sic1T33V” value [1] was “alive”, the “gal Sic1T45A” value [1] was “dead” and the “gal Sic1 wt” value [1] was “alive”. The “viability / sensitivity to increased SIC1 dosage” value [1] was “indistinguishable from wild type”.

B3: R443D: mutant cdc4 polypeptide (protein)
chain: MGSFPLAEFPLRDIPVPYSYRVSGGIASSGSVTALVTAAGTHRNSSTAKTVETEDGEEDIDEYQRKRAAGSGESTPERSDFKRVKHDNHKTLHPVNLQNTGAASVDNDGLHNLTDISNDAEKLLMSVDDGSAAPSTLSVNMGVASHNVAAPTTVNAATITGSDVSNNVNSATINNPMEEGALPLSPTASSPGTTTPLAKTTKTINNNNNIADLIESKDSIISPEYLSDEIFSAINNNLPHAYFKNLLFRLVANMDRSELSDLGTLIKDNLKRDLITSLPFEISLKIFNYLQFEDIINSLGVSQNWNKIIRKSTSLWKKLLISENFVSPKGFNSLNLKLSQKYPKLSQQDRLRLSFLENIFILKNWYNPKFVPQRTTLRGHMTSVITCLQFEDNYVITGADDKMIRVYDSINKKFLLQLSGHDGGVWALKYAHGGILVSGSTDDTVRVWDIKKGCCTHVFKGHNSTVRCLDIVEYKNIKYIVTGSRDNTLHVWKLPKESSVPDHGEEHDYPLVFHTPEENPYFVGVLRGHMASVRTVSGHGNIVVSGSYDNTLIVWDVAQMKCLYILSGHTDRIYSTIYDHERKRCISASMDTTIRIWDLENIWNNGECSYATNSASPCAKILGAMYTLQGHTALVGLLRLSDKFLVSAAADGSIRGWDANDYSRKFSYHHTNLSAITTFYVSDNILVSGSENQFNIYNLRSGKLVHANILKDADQIWSVNFKGKTLVAAVEKDGQSFLEILDFSKASKINYVSNPVNSSSSSLESISTSLGLTRTTIIP
For B3, the P-Sic1 pull down (phospho-Sic1) was “bind”, the P-Sic1 pull down (phospho-Sic1; listed as Arg443Asp) was “indistinguishable from wild type” and the shuffle (cdc4Δ strain) was “alive”. For the same molecule, the shuffle (cdc4Δ strain; listed as Arg443Asp) was “indistinguishable from wild type”, the “gal Sic1T33V” value [1] was “alive” and the “gal Sic1T45A” value [1] was “dead”. For the same molecule, the “gal Sic1 wt” value [1] was “alive” and the “viability / sensitivity to increased SIC1 dosage” value [1] was “indistinguishable from wild type”.
